# Measurements as given in patent US20050079613A1, “Downregulation of cell surface glycoproteins by a family of human ubiquitin ligases” (Oregon Health & Science University, priority 2002, published 2005).
# B1: MARCH-IV: human membrane-associated RING-CH ubiquitin ligase, SEQ ID NOS:45 and 57; construct used lacks the first 63 amino-acids (protein)
# chain: WYCYGLCAPAPQMLRHQGLLKCRCRMLFNDLKVFLLRRPPQAPLPMHGDPQPPGLAANNTLPALGAGGWAGWRGPREVVGREPPPVPPPPPLPPSSVEDDWGGPATEPPASLLSSASSDDFCKEKTEDRYSLGSSLDSGMRTPLCRICFQGPEQGELLSPCRCDGSVKCTHQPCLIKWISERGCWSCELCYYKYHVIAISTKNPLQWQAISLTVIEKVQVAAAILGSLFLIASISWLIWSTFSPSARWQRQDLLFQICYGMYGFMDVVCIGLIIHEGPSVYRIFKRWQAVNQQWKVLNYDKTKDLEDQKAGGRTNPRTSSSTQANIPSSEEETAGTPAPEQGPAQAAGHPSGPLSHHHCAYTILHILSHLRPHEQRSPPGSSRELVMRVTTV
# What was measured:
# Type in all cases: cell-based, human
# [1] = system: CD4; test: Surface expression of co-transfected CD4 on HeLa cells, flow cytometry
# Procedure: (§1) Flow cytometry. Cells were removed from tissue culture dishes with 0.05% Trypsin-EDTA (Invitrogen), washed with ice-cold PBS, and incubated with appropriate antibody for 30 minutes at 4° C. The cells were washed with ice-cold PBS and either resuspended in ice-cold PBS or incubated with PE-conjugated anti-mouse secondary antibody (DAKO) and washed again before analysis with a BD Biosciences (San Jose, Calif.) FACScalibur flow cytometer.
# The ability to downregulate MHC I is common to KSHV-K3, KSHV-K5, MHV68-K3 and MV-M153R (Coscoy and Ganem, 2000, supra; Guerin et al., 2002, supra; Ishido et al., 2000b supra; Stevenson et al., 2000, supra). Additional substrates are ICAM-1 and B7.2 (but not B7.1) for KSHV-K5, as well as CD95 and CD4 for M153R (Coscoy and Ganem, 2001, supra; Guerin et al., 2002, supra; Ishido et al., 2000a, supra; Mansouri et al., 2003, supra). Since only low copy numbers were detected in HeLa cells for transcripts corresponding to each of the MARCH-proteins (FIG. 7C, and data not shown), HeLa cells were transfected with expression plasmids for MARCH-I, II, III, IV, V and VIII. Surface expression of selected glycoproteins was monitored upon transfection. […] Surface expression of the respective markers was analyzed by flow cytometry. […]
# [2] = system: HLA-A2.1; test: Surface expression of co-transfected HLA-A2.1 constructs on HeLa cells, flow cytometry
# Procedure: as §1
# The ability to downregulate MHC I is common to KSHV-K3, KSHV-K5, MHV68-K3 and MV-M153R (Coscoy and Ganem, 2000, supra; Guerin et al., 2002, supra; Ishido et al., 2000b supra; Stevenson et al., 2000, supra). Additional substrates are ICAM-1 and B7.2 (but not B7.1) for KSHV-K5, as well as CD95 and CD4 for M153R (Coscoy and Ganem, 2001, supra; Guerin et al., 2002, supra; Ishido et al., 2000a, supra; Mansouri et al., 2003, supra). Since only low copy numbers were detected in HeLa cells for transcripts corresponding to each of the MARCH-proteins (FIG. 7C, and data not shown), HeLa cells were transfected with expression plasmids for MARCH-I, II, III, IV, V and VIII. Surface expression of selected glycoproteins was monitored upon transfection. The following known substrates for viral K3-family members were tested: Fas (CD95) and HLA class I (MHC I), both of which are endogenously expressed in HeLa cells, as well as transfected HLA-A2.1 or CD4. […] Surface expression of the respective markers was analyzed by flow cytometry. GFP was used to identify transfected cells.
# The most likely targets for ubiquitination on transmembrane glycoproteins are lysines in the cytoplasmic tail. To examine the role of lysines for MHC I and CD4 downregulation by MARCH-IV, a panel of constructs derived from the human MHC I molecule HLA-A2.1 and a lysine-deleted version of CD4 (Mansouri et al., 2003, supra) were used. In addition to MARCH-IV, MARCH-VIII was included in this analysis since it reduced HLA-A2.1 surface expression (FIG. 10A). […] To rule out the possibility that these mutations changed the target molecules in such a way that they are no longer recognized by MARCH-IV or VIII, a lysine residue into a HA-tag at the carboxyterminal end of HLA-A2.1 was introduced.
# [3] = system: HLA-A2.1; test: Pulse-chase of HLA-A2.1 maturation and turnover in transfected HeLa cells; conditions: HeLa cells co-transfected with HLA-A2.1 and MARCH-IV, chase up to 8 hours
# Procedure: Metabolic labeling, immunoprecipitation and Western blotting. HeLa cells were grown to 80% confluency in 100 mm tissue culture dishes and transfected as above. Cells were incubated in serum-free and methionine-free medium for 30 minutes, and metabolically labeled with ^35S-cysteine/^35S-methionine (250 μCi, Amersham) for the indicated time. After labeling, cells were washed twice with PBS and either lysed immediately in PBS containing 1% Triton X-100 and protease inhibitors (Roche, Indianapolis, Ind.), or the label was chased with excess (2 mM) unlabeled cysteine and methionine in the presence or absence of specific inhibitors for the indicated time. The cell lysates were precleared with protein A/G agarose beads and incubated with 3 μg of antibody for one hour and followed by two hours incubation with protein A/G beads. Immunoprecipated proteins were washed five times with 0.1% Triton X-100 in PBS. All samples were boiled in SDS buffer and analyzed by SDS-PAGE gel electrophoresis. Where indicated, samples were treated with Endoglycosidase H (Roche) according to manufacturer's instructions. Briefly, samples were initially denatured at 100° C. in 40 μl of 0.3% SDS, 150 mM 2-mercaptoethanol, 50 mM sodium acetate, pH 5.5 and incubated with 4 milli-Units of Endo H overnight at 37° C. All samples were boiled in SDS buffer and analyzed by SDS-PAGE gel electrophoresis. […]
# [4] = system: MHC I; test: MHC I uptake assay in HeLa cells; conditions: transfected HeLa cells, 37° C. for 120 minutes
# Procedure: Uptake Assay. Uptake of MHC I was measured as previously described (Ishido et al., 2000b, supra). In short, HeLa cells were transfected with MARCH-IV. Twenty four hours post-transfection cells were washed and an anti-MHC I antibody allowed to bind at 4° C. Cells were then either fixed immediately or transferred to 37° C. for 120 minutes to allow uptake of antibody bound glycoproteins. Antibody bound to glycoprotein was visualized using an Alexaflour:594-conjugated secondary antibody.
# The observed downregulation of MHC I and CD4 by MARCH-IV permitted the study of the molecular mechanism by which MARCH-proteins reduce glycoprotein levels. […] The only known exception is MHV68-K3 which mediates proteasomal degradation of MHC I prior to its exit from the ER (Boname and Stevenson, 2001, supra). To study if MHC I was internalized by MARCH-IV, the recycling of MHC I in MARCH-IV transfected and non-transfected cells over the course of 2 hours was compared. MHC I on MARCH-IV transfected or non-transfected cells was labeled with anti-MHC I antibody at 4° C.
molecule,measurement,setting,value
B1,surface expression of transfected CD4,[1]; HeLa cells co-transfected with CD4 and MARCH plasmid,reduced the surface expression
same,downregulation of CD4 with lysines removed from the cytoplasmic tail,"[1]; HeLa cells, lysine-deleted CD4",resistance
same,downregulation of HLA-A2.1 with a lysine re-introduced into the C-terminal HA-tag,[2]; HeLa cells,restored downregulation
same,surface expression of transfected HLA-A2.1,[2]; HeLa cells co-transfected with HLA-A2.1 and MARCH plasmid,reduced the surface expression
same,downregulation of HLA-A2.1 with lysines removed from the tail,"[2]; HeLa cells, lysine-less HLA-A2.1 construct",resistant
same,fate of HLA-A2.1 in pulse-chase,[3],exits the ER but is degraded
same,internalization (uptake) of antibody-labeled MHC I,[4],rapid internalization
